Assays:
[1] = substrate: CC(C)(CO)[C@@H](O)C(=O)NCCC(=O)NCCN=[N+]=[N-]; experiment: (§1) Ratio of kcat to Km for Escherichia coli K12 CoaA
[2] = substrate: C#CCNC(=O)[C@H](O)C(C)(C)CO; experiment: as §1
[3] = substrate: C#CC(=O)NCCNC(=O)CCNC(=O)[C@H](O)C(C)(C)CO; experiment: as §1
[4] = substrate: CCOC(=O)NCCNC(=O)CCNC(=O)[C@H](O)C(C)(C)CO; experiment: as §1
[5] = substrate: CCCCCNC(=O)CCNC(=O)[C@H](O)C(C)(C)CO; experiment: as §1
[6] = substrate: C#CCCCCNC(=O)CCNC(=O)[C@H](O)C(C)(C)CO; experiment: as §1
[7] = substrate: CC(C)(CO)[C@@H](O)C(=O)NCCC(=O)O; experiment: as §1
[8] = substrate: CCCNC(=O)CCNC(=O)[C@H](O)C(C)(C)CO; experiment: as §1
[9] = substrate: CCC(=O)NCCNC(=O)CCNC(=O)[C@H](O)C(C)(C)CO; experiment: as §1
[10] = substrate: C#CCCNC(=O)CCNC(=O)[C@H](O)C(C)(C)CO; experiment: as §1
[11] = substrate: CCC(=O)OCCNC(=O)CCNC(=O)[C@H](O)C(C)(C)CO; experiment: as §1
[12] = substrate: C#CCNC(=O)CCNC(=O)[C@H](O)C(C)(C)CO; experiment: as §1
[13] = substrate: C=CCNC(=O)CCNC(=O)[C@H](O)C(C)(C)CO; experiment: as §1
[14] = substrate: C=CC(=O)NCCNC(=O)CCNC(=O)[C@H](O)C(C)(C)CO; experiment: as §1
[15] = substrate: C#CCCC(=O)NCCNC(=O)CCNC(=O)[C@H](O)C(C)(C)CO; experiment: as §1
[16] = substrate: C#CCCCNC(=O)CCNC(=O)[C@H](O)C(C)(C)CO; experiment: as §1
[17] = substrate: CC(C)(CO)[C@@H](O)C(=O)NCCC(=O)NCCN=[N+]=[N-]; experiment: (§2) Activity of Escherichia coli K12 CoaA
[18] = substrate: C#CCNC(=O)[C@H](O)C(C)(C)CO; experiment: as §2
[19] = substrate: C#CC(=O)NCCNC(=O)CCNC(=O)[C@H](O)C(C)(C)CO; experiment: as §2
[20] = substrate: CCOC(=O)NCCNC(=O)CCNC(=O)[C@H](O)C(C)(C)CO; experiment: as §2
[21] = substrate: CCCCCNC(=O)CCNC(=O)[C@H](O)C(C)(C)CO; experiment: as §2
[22] = substrate: C#CCCCCNC(=O)CCNC(=O)[C@H](O)C(C)(C)CO; experiment: as §2
[23] = substrate: CC(C)(CO)[C@@H](O)C(=O)NCCC(=O)O; experiment: as §2
[24] = substrate: CCCNC(=O)CCNC(=O)[C@H](O)C(C)(C)CO; experiment: as §2
[25] = substrate: CCC(=O)NCCNC(=O)CCNC(=O)[C@H](O)C(C)(C)CO; experiment: as §2
[26] = substrate: C#CCCNC(=O)CCNC(=O)[C@H](O)C(C)(C)CO; experiment: as §2
[27] = substrate: CCC(=O)OCCNC(=O)CCNC(=O)[C@H](O)C(C)(C)CO; experiment: as §2
[28] = substrate: C#CCNC(=O)CCNC(=O)[C@H](O)C(C)(C)CO; experiment: as §2
[29] = substrate: C=CCNC(=O)CCNC(=O)[C@H](O)C(C)(C)CO; experiment: as §2
[30] = substrate: C=CC(=O)NCCNC(=O)CCNC(=O)[C@H](O)C(C)(C)CO; experiment: as §2
[31] = substrate: C#CCCC(=O)NCCNC(=O)CCNC(=O)[C@H](O)C(C)(C)CO; experiment: as §2
[32] = substrate: C#CCCCNC(=O)CCNC(=O)[C@H](O)C(C)(C)CO; experiment: as §2

B1: Pantothenate kinase (Escherichia coli K-12), P0A6I3 (protein)
chain: MSIKEQTLMTPYLQFDRNQWAALRDSVPMTLSEDEIARLKGINEDLSLEEVAEIYLPLSRLLNFYISSNLRRQAVLEQFLGTNGQRIPYIISIAGSVAVGKSTTARVLQALLSRWPEHRRVELITTDGFLHPNQVLKERGLMKKKGFPESYDMHRLVKFVSDLKSGVPNVTAPVYSHLIYDVIPDGDKTVVQPDILILEGLNVLQSGMDYPHDPHHVFVSDFVDFSIYVDAPEDLLQTWYINRFLKFREGAFTDPDSYFHNYAKLTKEEAIKTAMTLWKEINWLNLKQNILPTRERASLILTKSANHAVEEVRLRK
[1]
  kcat/Km: 268 M⁻¹ s⁻¹
[2]
  kcat/Km: 27 M⁻¹ s⁻¹
[3]
  kcat/Km: 185 M⁻¹ s⁻¹
[4]
  kcat/Km: 305 M⁻¹ s⁻¹
[5]
  kcat/Km: 410 M⁻¹ s⁻¹
[6]
  kcat/Km: 300 M⁻¹ s⁻¹
[7]
  kcat/Km: 352 M⁻¹ s⁻¹
[8]
  kcat/Km: 411 M⁻¹ s⁻¹
[9]
  kcat/Km: 257 M⁻¹ s⁻¹
[10]
  kcat/Km: 396 M⁻¹ s⁻¹
[11]
  kcat/Km: 392 M⁻¹ s⁻¹
[12]
  kcat/Km: 356 M⁻¹ s⁻¹
[13]
  kcat/Km: 381 M⁻¹ s⁻¹
[14]
  kcat/Km: 183 M⁻¹ s⁻¹
[15]
  kcat/Km: 195 M⁻¹ s⁻¹
[16]
  kcat/Km: 299 M⁻¹ s⁻¹
[17]
  Km: 43.5 µM
  Vmax: 0.28 µM/s
  kcat: 0.0115 s⁻¹
[18]
  Km: 396 µM
  Vmax: 0.26 µM/s
  kcat: 0.0107 s⁻¹
[19]
  Km: 48.5 µM
  Vmax: 0.22 µM/s
  kcat: 0.009 s⁻¹
[20]
  Km: 33.7 µM
  Vmax: 0.25 µM/s
  kcat: 0.0103 s⁻¹
[21]
  Km: 34 µM
  Vmax: 0.34 µM/s
  kcat: 0.014 s⁻¹
[22]
  Km: 40 µM
  Vmax: 0.29 µM/s
  kcat: 0.012 s⁻¹
[23]
  Km: 35.8 µM
  Vmax: 0.31 µM/s
  kcat: 0.0127 s⁻¹
[24]
  Km: 36.9 µM
  Vmax: 0.37 µM/s
  kcat: 0.0152 s⁻¹
[25]
  Km: 34.6 µM
  Vmax: 0.22 µM/s
  kcat: 0.00883 s⁻¹
[26]
  Km: 34 µM
  Vmax: 0.33 µM/s
  kcat: 0.0135 s⁻¹
[27]
  Km: 27.8 µM
  Vmax: 0.26 µM/s
  kcat: 0.0108 s⁻¹
[28]
  Km: 36 µM
  Vmax: 0.31 µM/s
  kcat: 0.0128 s⁻¹
[29]
  Km: 41.2 µM
  Vmax: 0.38 µM/s
  kcat: 0.0157 s⁻¹
[30]
  Km: 58 µM
  Vmax: 0.26 µM/s
  kcat: 0.0107 s⁻¹
[31]
  Km: 47.8 µM
  Vmax: 0.23 µM/s
  kcat: 0.00933 s⁻¹
[32]
  Km: 40.3 µM
  Vmax: 0.29 µM/s
  kcat: 0.012 s⁻¹

Source: ChEMBL document CHEMBL1151784, “Antibiotic evaluation and in vivo analysis of alkynyl Coenzyme A antimetabolites in Escherichia coli” (2008)
